Biological target: the molecule itself
Assay: thioflavin T fluorescence aggregation assay; 5 µM protein (monomer peak from Superose 12), 30 µM ThT, 37 °C, 20 mM HEPES pH 7.5, 150 mM NaCl, 1 mM DTT; without or with CLR01 or CLR03; amyloid self-assembly

B1: Truncated ataxin-3 variant comprising the N-terminal globular Josephin domain (Atx3 JD) (domain or fragment, human, UniProt P54252-2 1-180, looked up)
chain: MESIFHEKQEGSLCAQHCLNNLLQGEYFSPVELSSIAHQLDEEERMRMAEGGVTSEDYRTFLQQPSGNMDDSGFFSIQVISNALKVWGLELILFNSPEYQRLRIDPINERSFICNYKEHWFTVRKLGKQWFNLNSLLTGPELISDTYLALFLAQLQQEGYSIFVVKGDLPDCEADQLLQM
notes: Ataxin-3 (Atx3), human, UniProt P54252-2, N-terminal globular Josephin domain; printed MW 23 767.87 Da; The text names residues up to R182; NMR models of JD: PDB 1YZB and 2AGA (cited); also called isolated JD; not shown: His6, N-terminal, kept
B1: binds.

Source: publication PMC12931234, “Allosteric Modulation of Pathological Ataxin‐3 Aggregation: A Path to Spinocerebellar Ataxia Type‐3 Therapies” (Advanced Science, 2025)
